A short description of series [1]: Differential scanning calorimetry of model membranes. As to conditions: 3 mM DMPC:DMPG (3:1) LUVs, 10 mM Tris-HCl pH 7.5, pure LUVs 23.1, triplicate, ± 0.2 °C. The method, then:
The phase transition profile of 1,2-dimyristoyl-sn-glycero-3-phosphocholine and 1,2-dimyristoyl-sn-glycero-3-phosphocholine/1,2-dimyristoyl-sn-glycero-3-phosphoglycerol (DMPC:DMPG. 3:1, mol:mol) at 3 mM was investigated in the absence and presence of Lun-1, NP, NP-Lun-EN, and NP-Lun-EC at different concentrations (Table S1, using a VP-DSC® microcalorimeter (Malvern® Instruments, Malvern, UK). All mixtures of LUVs and peptide–LUVs were prepared immediately prior to the experiments. The samples were pre-degassed and tested against a 10 mM Tris-HCl buffer (pH 7.5) containing 50 mM NaCl in the reference cell. Buffer-only experiments were also performed in all cells for subsequent background subtraction. Each sample underwent three successive heating scans in the temperature range of 10–35 °C at a heating rate of 1.0 °C.min^−1. Data analyses were performed using Microcal Origin® DSC software version 5.0 (GE HealthCare-Microcal®, Amherst, MA, USA), which was employed to subtract the blank and determine the transition temperature (Tm) and transition enthalpy (DtransH) from the gel phase to the liquid crystalline phase.

In series [2] the test system is trypsin. As to the kind of experiment: Proteolytic degradation by trypsin (HPLC). In kind it is in vitro ADME. The note with it: trypsin 1:50 (w/w), 100 µM peptide, 20 mM Tris-HCl pH 8.0, 37 °C, HPLC-UV of filtered supernatant; time points 1 min to 4 h. The procedure: Lunatin–AAAE and EAAA–lunatin and their nanoparticle-functionalized counterparts (NP-Lun-EN and NP-Lun-EC) were suspended in 20 mM Tris-HCl buffer (pH 8.0) at a final peptide concentration of 100 µM and exposed to enzymatic digestion with trypsin at 37 °C, using an enzyme-to-substrate ratio of 1:50 (w/w) in a final volume of 1000 µL. Incubation was performed using an AccuBlock™ Digital Dry Bath (Ciencor),. Aliquots of 200 µL were withdrawn at different time points (1 min, 5 min, 10 min, 30 min, 1 h, 2 h, 3 h, and 4 h), and enzymatic activity was quenched by adding 40 µL of 1 M HCl. Samples were centrifugated and supernatant filtered in whatman® alumina anodisc filter discs 0.02 μm pore size, previously injected in a high-performance liquid chromatography system (Varian® ProStar 315 system equipped with a UV detector), using an Agilent AdvanceBio Peptide Mapping column (4.6 × 150 mm), and 50 µL injection loop.

In series [3] the test system is Pseudomonas aeruginosa (ATCC27853). In words: Antibacterial assay, MIC (broth microdilution, resazurin). The series is classed as cell-based. As to conditions: Mueller-Hinton broth, CLSI M07-A9, 1:2 serial dilution from 128.5 μM, 37 °C 20 h, resazurin read-out, triplicate; conjugates dosed as peptide concentration. The method, then: (§1) The peptide Lun-1 and the peptide-conjugated nanoparticles (Lun-EN and Lun-EC) were investigated against […] bacterial strains—Pseudomonas aeruginosa, Staphylococcus aureus, Acinetobacter, Escherichia coli, and Streptococcus agalactiae, all from American Type Culture Collection (Manassas, VA, USA). Details can be found in the SM. […]
(§2) phase at 35 °C and subsequently transferred to Mueller-Hinton broth according to the guidelines established by the M07 -A9 CLSI. Methods for the dilution antimicrobial susceptibility tests for b acteria that grow aerobically were from the Approved Standard—Ninth Edition. CLSI document M07 -A9. Wayne, PA: Clinical and Laboratory Standards Institute; 2012. Bacterial suspensions were adjusted to the turbidity equivalent to 0.5 McFarland standard ([…]), by spectrophotometric measurement at 625 nm (Bel Photonics S2000 UV, São Paulo, Brazil).
(§3) The suspension was then diluted 1:20, and 50 μL aliquots were distributed into 96-well flat-bottom microplates (Nümbrecht, Germany).
(§4) Chloramphenicol (30 μg·mL⁻¹; 92.8 μM) was used as standard drug and served as positive control for growth bacterial inhibition. Wells containing 50 μL of bacterial inoculum and 50 μL of sterile culture medium were used as negative controls. Free peptides were tested at a maximum concentration of 128.5 μM and diluted via serial dilution (1:2) up to seven times in Mueller–Hinton broth. For the nanoparticle– peptide conjugations concentration s were adjusted according to the degree of functionalization to ensure accurate dosing of the active peptide component.
(§5) Plates were incubated at 37 °C for 20 hours. After incubation, 30 μL of a 0.01% (w/v) resazurin solution (10-oxido -7 -oxophenoxazin-10 -ium -3 -olate; Sigma -Aldrich, St. Louis, MO, USA) was added to each well. Plates were protected from light and incubated for an additional 4 hours to allow colorimetric development. The tests whose bacteria did not develop a pink color after incubation (maintaining the blue coloration) were […]
Background: Broth dilution looks for growth in wells or tubes with falling amounts of substance.

For series [4], the system named is Escherichia coli (ATCC25922). The description is as above. The series is classed as cell-based. As to conditions: Mueller-Hinton broth, CLSI M07-A9, 1:2 serial dilution from 128.5 μM, 37 °C 20 h, resazurin read-out, triplicate; conjugates dosed as peptide concentration. The method, then:
as §1, §2, §3, §4, §5
In general terms: Resazurin is reduced to fluorescent resorufin, in cell work by metabolically active cells.

The test system of series [5] is Staphylococcus aureus (ATCC29213). The series is described as above. The series is classed as cell-based. As to conditions: Mueller-Hinton broth, CLSI M07-A9, 1:2 serial dilution from 128.5 μM, 37 °C 20 h, resazurin read-out, triplicate; conjugates dosed as peptide concentration. The method, then: as §1, §2, §3, §4, §5
The test system of series [6] is Acinetobacter (ATCC17978). Described as above. In kind it is cell-based. As to conditions: Mueller-Hinton broth, CLSI M07-A9, 1:2 serial dilution from 128.5 μM, 37 °C 20 h, resazurin read-out, triplicate; conjugates dosed as peptide concentration. The method, then:
as §1, §2, §3, §4, §5

Series [7] concerns Streptococcus agalactiae (ATCC 29313). The description is as above. In kind it is cell-based. The note with it: Mueller-Hinton broth, CLSI M07-A9, 1:2 serial dilution from 128.5 μM, 37 °C 20 h, resazurin read-out, triplicate; conjugates dosed as peptide concentration. The method, then: as §1, §2, §3, §4, §5
Series [8] can be described thus: Circular dichroism, secondary structure content. The series is classed as physicochemical. The note with it: 10 mM Tris-HCl, 100 mM NaCl, pH 8.5, 25 µM peptide, 25 °C. The method, then: Circular dichroism spectra were recorded using a JASCO J-815 spectrometer (Easton, MD, USA) equipped with a Peltier Jasco model PTC-423 L temperature control system. Spectra were obtained using a quartz cuvette with a 1 cm optical path at a temperature of 25 °C, covering a wavelength range from 190 to 260 nm with eight consecutive scans per sample. The scan speed was set at 100 nm/min and the response time was 4 s. The bandwidth was 1 nm, and ellipticity readings were taken every 0.2 nm. The Lun-1 (25 µM), NP (0.155 mg·mL^−1), NP-Lun-EN (0.17 mg·mL^−1–25 µM of peptide concentration), and NP-Lun-EC (0.18 mg·mL^−1–25 µM of peptide concentration) samples were (corresponding to 25 µM of peptide in NP-Lun-EN and NP-Lun-EC) suspended in 10 mM Tris-HCl buffer solution at pH 8.5 containing 100 mM NaCl or in 200 µM POPC:POPG (3:1, mol:mol) LUVs suspended in the same buffer solution. Data processing and deconvolution calculations to obtain the contents of secondary structures were carried out using the CDpro® program.

One may read the MIC as the smallest concentration in the dilution series that meets the test's criterion for growth inhibition. As to NP-NtermEAAA-Lun-1 [NP-Lun-EN], the “Tm of LUVs” value in series [1] (10 µM peptide) was 22.9 °C; in series [1] (25 µM peptide) it was 22.9 °C; in series [1] (50 µM peptide) it was 22.9 °C; in series [1] (100 µM peptide), 21.9 °C. The “time after which progressive degradation (cleavage fragment peaks) is observed with trypsin” value in series [2] is reported as 2 h. The MIC result in series [3] was “did not exhibit activity”; in series [4], 128.5 µM; in series [5] it was 64.2 µM; in series [6], “did not exhibit activity”; in series [7] it was 128.5 µM. Besides, the “a-helical percentage (CD deconvolution)” value in series [8] (in buffer, CDpro) stood at 35%. In addition, the “β-sheet percentage (CD deconvolution)” value in series [8] (in buffer, CDpro) stood at 45%. Further, the “α-helix content (CD deconvolution)” value in series [8] (in presence of 200 µM POPC:POPG (3:1) LUVs) is on record as 40%.

These data come from publication PMC12299903 (Pharmaceuticals, 2025).
